Reference: patent US20090062190

Tested on: LITAF + STAT6(B) complex (Homo sapiens)
Assay: cell_activity
Settings: TNF promoter-luciferase in U2OS cells; inhibited by LITAF shRNA

Sequence of LITAF + STAT6(B) complex (Homo sapiens) (chain, as listed by the source, chain 1 of 2): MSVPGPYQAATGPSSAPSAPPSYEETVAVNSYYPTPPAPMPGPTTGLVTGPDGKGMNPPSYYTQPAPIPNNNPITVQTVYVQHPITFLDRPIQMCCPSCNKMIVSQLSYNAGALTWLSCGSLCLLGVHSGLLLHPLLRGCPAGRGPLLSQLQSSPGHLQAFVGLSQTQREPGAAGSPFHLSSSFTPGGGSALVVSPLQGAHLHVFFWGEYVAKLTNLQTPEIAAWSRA
Sequence of LITAF + STAT6(B) complex (Homo sapiens) (chain, as listed by the source, chain 2 of 2): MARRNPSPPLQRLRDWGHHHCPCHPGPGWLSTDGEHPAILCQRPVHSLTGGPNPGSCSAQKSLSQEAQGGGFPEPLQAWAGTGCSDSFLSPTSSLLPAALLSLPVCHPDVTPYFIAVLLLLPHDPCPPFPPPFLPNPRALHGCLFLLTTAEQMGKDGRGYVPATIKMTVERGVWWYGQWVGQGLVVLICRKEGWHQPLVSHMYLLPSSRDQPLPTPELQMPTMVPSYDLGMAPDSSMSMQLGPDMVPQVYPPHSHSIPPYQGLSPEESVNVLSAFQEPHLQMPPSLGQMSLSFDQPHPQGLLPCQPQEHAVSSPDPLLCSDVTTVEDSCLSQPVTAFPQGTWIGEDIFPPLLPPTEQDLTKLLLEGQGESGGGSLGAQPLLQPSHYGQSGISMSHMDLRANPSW

In the case of hTNF-alpha promoter DNA probe, the activity (fold vs LITAF alone) is reported as 1.5.
